Assay results from PMC5864733 (Nature Communications, 2018).

Molecular target: T1, CesT (residues 1-156), 6xHis-tagged, wild type (enteropathogenic E. coli (EPEC) O127:H6 …, UniProt P21244 1-156)
T1 construct: source: E. coli BL21(DE3), purified (Ni-NTA, gel filtration); not shown: His6, N-terminal, kept
Assay: SPR
Details: both partners purified

T1 sequence (P21244 whole entry, the tested form may be a part): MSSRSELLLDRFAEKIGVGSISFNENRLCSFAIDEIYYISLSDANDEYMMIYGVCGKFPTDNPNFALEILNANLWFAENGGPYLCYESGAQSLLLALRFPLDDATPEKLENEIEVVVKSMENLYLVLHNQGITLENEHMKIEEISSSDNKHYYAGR

B1: CsrA (residues 1-61), GST tag removed (natural protein)
chain: not shown
notes: also called WT CsrA; native CsrA
  KD of the first ligand binding site in CsrA (Bivalent-Analyte model): ~148 nM
